PMC10845952, “Mass spectrometry and split luciferase complementation assays reveal the MecA protein interactome of Streptococcus mutans” (Microbiology Spectrum, 2024)

T1: MecA fused to the RenG N-terminal domain (1-155) (S. mutans, UniProt Q8DW33 1-240)
T1 construct: adaptor protein MecA; S. mutans UA159; source: S. mutans, expressed in live cells; not shown: RenG luciferase N-terminal domain (1-155), C-terminal, kept
T1 sequence: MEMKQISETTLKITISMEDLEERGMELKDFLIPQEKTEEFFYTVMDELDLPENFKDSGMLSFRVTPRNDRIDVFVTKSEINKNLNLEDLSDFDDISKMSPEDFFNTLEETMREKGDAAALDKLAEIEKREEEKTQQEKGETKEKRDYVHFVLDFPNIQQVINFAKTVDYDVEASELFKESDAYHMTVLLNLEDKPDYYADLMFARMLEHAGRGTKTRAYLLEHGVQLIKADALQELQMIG

B1: ThiI fused to the RenG C-terminal domain (156-314) (natural protein, S. mutans, UniProt Q8DUR1 1-405, looked up)
chain: MQYSEIMVRYGELSTKGKNRMRFINQLKRNMKHVLSIYPEVSIRADRDRAHIYLNGANYVPVAESLKQIFGIQAFSPSYKVEKSVPALEKAVQAIMVELHHEGLTFKISSKRSDHQFELDSRELNQVLGSAVFAVLPDIKAQMNHPNVNLKVEIREEAAYLSYENIKGAGGLPVGTAGKGMLMLSGGIDSPVAGYLALKRGVNIEAVHFASPPYTSPGALKKAQDLTRKLTKFGGNIQFIEVPFTEIQEEIKAKAPEAYLMTLTRRFMMRIADRIREERSGLVIINGESLGQVASQTLESMQAINAVTTTPVIRPVVTMDKLEIIDIAEKIDTFAISIQPFEDCCTIFAPDRPKTNPKIKNVEQYEARLDIEGLVARAVAGINITEITPQEESQDEVDVLIEDLL
notes: tRNA 4-thiouridine(8) synthase, ThiI; S. mutans UA159; also called Thil; not shown: RenG luciferase C-terminal domain (156-314), C-terminal, kept
B2: XseA fused to the RenG C-terminal domain (156-314) (natural protein, S. mutans, UniProt Q8DVB5 1-447, looked up)
chain: MSDYLSVSSLTKYLKLKFDRDPYLERVYLTGQVSNFRRRPNHQYFSLKDEKAVIQATMWSGIYRKLGFELEEGMKINVIGRVQLYEPSGSYSIIIEKAEPDGIGALAVQFEQLKKKLAEAGYFDDRHKQRLSQFVKKIGVVTSPSGAVIRDIITTVSRRFPGVDILLFPTKVQGEGAAQEVADNIRLANERTDLDLLIVGRGGGSIEDLWAFNEEIVVQAIFESHLPIISSVGHETDTTLADFAADRRAATPTAAAELATPVTKADLLAFLKERQMRSYQAVMRLIRQKDEQVKKLQRSVIFRQPERLYDAYVQKLDHLRTHLLTKVRQVYDVYDSKEHLLRQRLLSFNLSGCIQRYQAQLKQDQRLLLSHMSSQYDSKLARFEKAQDALLSLDTTRIVARGYAIVQKDNHIIQSTQQIKKGDRLHLEMKDGQVQVEVENVKQEENI
notes: Exodeoxyribonuclease VII large subunit, XseA; S. mutans UA159; not shown: RenG luciferase C-terminal domain (156-314), C-terminal, kept
B3: DnaG with the RenG C-terminal domain (156-314) fused to its N-terminus (natural protein, S. mutans, UniProt Q8DUS6 1-592, looked up)
chain: MVVDKEKIKEIKDSINIVDVIGEVVSLSRSGRNYLGLCPFHKEKTPSFNVIEDRQFFHCFGCGRSGDVFKFVEDYRNISFLESVQVLAERSGINVTLQDKSQEVKKEHPHQKLFNINGDANKFYQAVLKTTKVGETARQYLYERGLTDELITYFKIGLAPNEYDYLYQAMLKKYDEDTIINSGLFNLSDSNSIYDAFRNRIMFPLTDEFGHIIGFSGRIWTEEDTSKKLAKYKNTRSTIIFNKSYELYHLDKARTAAKKEHELYLMEGFMDVIAAYRAGIPNAVASMGTALTPEHVKHLRKFTKKVILTYDGDKAGQNAIAKSLNLLSNMAVEIVRIPGQMDPDEFIKENSEEELEKLLKQARISSAEFWIEHLKPENIDNLQAEIDYVEKIAKVIAASPSITAQNTYINKVAEFLPDFDYLQVEQAVNNERLQMRSQISEQESANQQVLIDLPVTKQLTALTKAESQLFHRLLHHDYLLNEFRNRAHFKFTTPELQELYQILKTNGEINAYDLSQLSNQLQETYYRVLEENLPEEIAEDEIRQIEDQIDKCLQRQEMRKQSKAIRESSNHGDVDTAVEGLAALIAQKRNME
notes: also called N-DnaG

These binders were tested against T1, MecA fused to the RenG N-terminal … (assay: split reporter (BiFC, NanoBiT)). Conditions: partners not purified.

Compared with B1, B2 is lower in “relative binding affinity (%)” value: 8.92 ± 1.07% for the first, 3.16 ± 0.25% for the second.

In the case of B3, the “relative binding affinity (%)” value is reported as 6.97 ± 0.32%.
